B1: Gap27 (peptide)
peptide: SRPTEKTIFII
notes: connexin43 mimetic peptide, 11 amino acids, analogue of the second extracellular loop (EL2) of connexin43; The peptide was tested on the RadA-EL1 construct; also called G27; connexin mimetic peptide Gap27; source: bought: Pepnome Inc., Hong Kong (peptide)
B2: Gap26 (peptide)
peptide: VCYDKSFPISHVR
notes: connexin43 mimetic peptide, 13 amino acids, analogue of the first extracellular loop (EL1) of connexin43; The peptide was tested on the RadA-EL2 construct; also called G26; connexin mimetic peptide Gap26; source: bought: Pepnome Inc., Hong Kong (peptide)

Assays:
[1] = biological target: RadA-EL1 (extracellular loop 1 of connexin43 grafted into the monomeric ATPase domain of Pyrococcus furiosus … (Pyrococcus furiosus | , Only the grafted connexin43 EL1 loop (the binding part) is given. It was displayed on the His-tagged monomeric RadA ATPase domain of Pyrococcus furiosus, treated here as a carrier. The scaffold limits)); experiment: SPR; Biacore T200; his-tagged RadA-EL1 captured on NTA surface (about 200 RU) as ligand, Gap27 injected as analyte at 30 µL/min; 25 °C; 50 mM HEPES pH 7.5, 500 mM NaCl, 0.005% Tween-20; reference channel without nickel; 1:1 binding model; conditions: both partners purified
RadA-EL1 (extracellular loop 1 of connexin43 grafted into the monomeric ATPase domain of Pyrococcus furiosus … (Pyrococcus furiosus | , Only the grafted connexin43 EL1 loop (the binding part) is given. It was displayed on the His-tagged monomeric RadA ATPase domain of Pyrococcus furiosus, treated here as a carrier. The scaffold limits)), sequence (chain, as listed by the source): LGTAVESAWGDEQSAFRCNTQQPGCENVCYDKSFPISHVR

[2] = biological target: RadA-EL2 (extracellular loop 2 of connexin43 grafted into the monomeric ATPase domain of Pyrococcus furiosus … (Pyrococcus furiosus | , Only the grafted connexin43 EL2 loop (the binding part) is given. It was displayed on the His-tagged monomeric RadA ATPase domain of Pyrococcus furiosus, treated here as a carrier. The scaffold limits)); experiment: SPR; Biacore T200; his-tagged RadA-EL2 captured on NTA surface (about 200 RU) as ligand, Gap26 injected as analyte at 30 µL/min; 30 °C; 50 mM HEPES pH 7.5, 500 mM NaCl, 0.005% Tween-20, 0.1 mM TCEP; reference channel without nickel; 1:1 binding model; conditions: both partners purified
RadA-EL2 (extracellular loop 2 of connexin43 grafted into the monomeric ATPase domain of Pyrococcus furiosus … (Pyrococcus furiosus | , Only the grafted connexin43 EL2 loop (the binding part) is given. It was displayed on the His-tagged monomeric RadA ATPase domain of Pyrococcus furiosus, treated here as a carrier. The scaffold limits)), sequence (chain, as listed by the source): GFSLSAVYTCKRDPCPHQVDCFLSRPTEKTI

Binder	Kd [1]	koff [1]	Kd [2]	koff [2]
B1	6 µM	0.061 s⁻¹	–	–
B2	–	–	8 µM	0.0043 s⁻¹
